Values of other authors, collected in PMC5009806.

Biological target: amyloid beta (Homo sapiens) (UniProt P05067)
Test: SPR

Kd: 0.6 nM
Substance: Gantenerumab
